Experimental data as given in US7662633B2, “Method of screening for inhibitors of osteopontin” (GlaxoSmithKline LLC, priority 2000, dated 2010).
Ends that are not written are not given here.

Key:
Assay type in all cases: cell-based
α4β1 [1] = target: T1, α4β1 (Homo sapiens, UniProt P05556+P13612); assay: J6 cell adhesion to GST-CS-1 (CS-1 fragment of fibronectin); details: for Relative potency compared to parent peptide SVVYGLR against α4β1 (J6 adhesion to GST-CS-1): SVVYGLR peptide with the residue mutated to alanine; for Inhibition of J6 cell adhesion to GST-CS-1 by synthetic peptide (α4β1-CS-1 interaction): varying peptide concentrations, 35 min 37° C.
T1 construct: Of the integrins analysed J6 express only α5β1 and α4βwhile HL60 express α4β1 and α5β1 and αLβ2; endogenous in cells; host or cells: J6 cells
Description: (§1) All proteins were coated onto MAXISORP plates (Nunc) overnight at 4° C. Each protein was diluted in PBS at the concentrations indicated, and a total volume of 100 μl added per well. Plates were washed twice in PBS then blocked with 3% BSA/PBS for 1 hr at 37° C., and finally washed twice in PBS. Routinely HL60 cells were pelleted and washed once in HBSS (Sigma) then spread in 25 mM Hepes 7.5, HBSS at 2×10^6 ml^−1 (100 μl per well) in the presence of 0.2 mM MnCl2 and 50 ng/ml TPA, with other additions as indicated. J6 cells were likewise pelleted and washed once in HBSS (Sigma) then spread in 25 mM Hepes (pH7.5), HBSS at 2×10^6ml^−1 (100 μl per well) in the presence of 0.2 mM MnCl2 and other additions as indicated. For antibody inhibition cells were preincubated with the antibody (10 μg/ml) on ice for 10 minutes. Cells were then allowed to attach for 35 minutes at 37° C., washed twice in PBS, once in ethanol, and fixed in ethanol for 20 minutes at room temperature. For quantitation cells were visualised by staining with 0.1% crystal violet (Sigma) for 10 minutes then lysed in 0.5% TRITON X-100 (Sigma) and read at 570 nm in a Wallac Victor plate reader.

α4β1 [2] = assay: as above; details: J6/CS-1 versus RPMI8866/zz-MAdCAM
Description: as §1

α4β7 = target: T2, α4β7 (Homo sapiens, UniProt P13612+P26010); assay: α4β7 adhesion assay: RPMI8866 cell adhesion to zz-MAdCAM; details: for Relative potency compared to parent peptide SVVYGLR against α4β7 (RPMI8866 adhesion to zz-MAdCAM): SVVYGLR peptide with the residue mutated to alanine; for Inhibition of RPMI8866 cell adhesion to zz-MAdCAM by synthetic peptide: varying peptide concentrations, 20 min 37° C.
T2 construct: RPMI8866 cells which express α4β7, and small amounts of α4β1 and α5β1 were used; endogenous in cells; host or cells: RPMI8866 cells
T2 sequence (P13612 34-1032): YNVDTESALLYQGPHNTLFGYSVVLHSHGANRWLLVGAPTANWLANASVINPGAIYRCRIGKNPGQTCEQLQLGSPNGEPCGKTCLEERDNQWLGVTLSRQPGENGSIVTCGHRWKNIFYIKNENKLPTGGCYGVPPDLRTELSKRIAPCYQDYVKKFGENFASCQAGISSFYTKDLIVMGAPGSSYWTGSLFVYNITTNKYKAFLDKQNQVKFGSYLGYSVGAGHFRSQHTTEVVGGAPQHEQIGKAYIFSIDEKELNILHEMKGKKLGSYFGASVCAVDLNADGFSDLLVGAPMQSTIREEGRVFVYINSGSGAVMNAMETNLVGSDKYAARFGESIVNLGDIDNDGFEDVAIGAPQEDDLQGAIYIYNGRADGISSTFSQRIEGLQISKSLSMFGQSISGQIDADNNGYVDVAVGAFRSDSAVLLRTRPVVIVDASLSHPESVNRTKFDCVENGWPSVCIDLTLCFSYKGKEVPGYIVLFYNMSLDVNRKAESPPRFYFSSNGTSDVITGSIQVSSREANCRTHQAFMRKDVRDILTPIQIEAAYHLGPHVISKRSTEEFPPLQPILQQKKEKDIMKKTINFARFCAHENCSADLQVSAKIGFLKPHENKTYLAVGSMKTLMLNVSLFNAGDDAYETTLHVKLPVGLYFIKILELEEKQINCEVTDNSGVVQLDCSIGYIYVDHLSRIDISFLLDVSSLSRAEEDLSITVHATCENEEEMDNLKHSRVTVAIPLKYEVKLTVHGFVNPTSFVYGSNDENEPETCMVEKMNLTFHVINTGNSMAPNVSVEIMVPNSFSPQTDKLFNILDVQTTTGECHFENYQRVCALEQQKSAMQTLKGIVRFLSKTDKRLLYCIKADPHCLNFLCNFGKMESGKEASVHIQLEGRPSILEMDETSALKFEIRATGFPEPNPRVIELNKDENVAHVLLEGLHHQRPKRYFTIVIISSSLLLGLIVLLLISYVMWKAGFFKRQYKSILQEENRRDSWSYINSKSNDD
T2 sequence (P26010 20-798): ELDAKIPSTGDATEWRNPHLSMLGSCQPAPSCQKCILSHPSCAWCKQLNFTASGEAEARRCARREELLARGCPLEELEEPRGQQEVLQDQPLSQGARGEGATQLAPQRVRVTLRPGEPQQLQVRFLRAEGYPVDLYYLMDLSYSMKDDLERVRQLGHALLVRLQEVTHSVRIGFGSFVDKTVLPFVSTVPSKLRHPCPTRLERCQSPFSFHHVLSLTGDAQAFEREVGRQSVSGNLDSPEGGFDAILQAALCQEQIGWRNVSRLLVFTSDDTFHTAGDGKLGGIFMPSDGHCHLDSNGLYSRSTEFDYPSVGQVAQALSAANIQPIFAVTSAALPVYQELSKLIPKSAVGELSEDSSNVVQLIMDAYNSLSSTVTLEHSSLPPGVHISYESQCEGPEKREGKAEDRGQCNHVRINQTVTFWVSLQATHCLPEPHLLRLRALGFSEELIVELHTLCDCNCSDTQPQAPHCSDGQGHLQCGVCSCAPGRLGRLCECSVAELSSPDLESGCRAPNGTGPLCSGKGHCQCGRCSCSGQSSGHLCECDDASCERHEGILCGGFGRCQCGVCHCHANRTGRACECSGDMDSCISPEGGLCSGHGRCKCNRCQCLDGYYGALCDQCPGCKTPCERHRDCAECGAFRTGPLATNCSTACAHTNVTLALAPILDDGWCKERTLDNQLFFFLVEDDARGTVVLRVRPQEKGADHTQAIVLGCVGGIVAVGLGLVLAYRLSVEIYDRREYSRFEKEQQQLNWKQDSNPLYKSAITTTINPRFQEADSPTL
Description: The recombinant zz-MAdCAM was absorbed onto Maxisorp plate pre-coated for 2.5 hours at 37° C. with 100 μL of human IgG, and then washed twice with PBS. For capture the recombinant zz-MAdCAM was diluted to the appropriate concentration in 3% BSA/PBS, 100 μl added to each well, and incubated overnight at 4° C. Prior to use plates were washed twice in PBS.
For the α4β7 adhesion assay RPMI8866 cells were washed in cation free HBSS supplemented with 1 mM EDTA, pelleted and labelled by incubating with BCECF (Molecular Probes) in cation-free HBSS at 37° C. for 10 minutes. At this stage cells were also co-incubated with […] human IgG to block endogenous Fc receptors. Cells were then washed once more in cation-free HBSS and then used in the adhesion assay at a final concentration of 3×10^6 cells ml^−1 in the presence of the appropriate treatment as indicated. To prevent cells clumping the assay plate was finally centrifuged at 400 rpm for 3 minutes without the brake. Cells were then incubated for 20 minutes at 37° C. and then washed twice in PBS before reading directly in a plate reader. For antibody inhibition studies the cells were preincubated with the appropriate antibody at […] for 5 minutes at room temperature prior to being placed in the incubator.

α4β1 [3] = target: T1, α4β1; assay: J6 cell adhesion to GST fusion proteins of osteopontin (OPN); details: 0.2 mM MnCl2, 35 min 37° C.
Description: as §1

T1 sequence (P05556 21-798, one chain of several): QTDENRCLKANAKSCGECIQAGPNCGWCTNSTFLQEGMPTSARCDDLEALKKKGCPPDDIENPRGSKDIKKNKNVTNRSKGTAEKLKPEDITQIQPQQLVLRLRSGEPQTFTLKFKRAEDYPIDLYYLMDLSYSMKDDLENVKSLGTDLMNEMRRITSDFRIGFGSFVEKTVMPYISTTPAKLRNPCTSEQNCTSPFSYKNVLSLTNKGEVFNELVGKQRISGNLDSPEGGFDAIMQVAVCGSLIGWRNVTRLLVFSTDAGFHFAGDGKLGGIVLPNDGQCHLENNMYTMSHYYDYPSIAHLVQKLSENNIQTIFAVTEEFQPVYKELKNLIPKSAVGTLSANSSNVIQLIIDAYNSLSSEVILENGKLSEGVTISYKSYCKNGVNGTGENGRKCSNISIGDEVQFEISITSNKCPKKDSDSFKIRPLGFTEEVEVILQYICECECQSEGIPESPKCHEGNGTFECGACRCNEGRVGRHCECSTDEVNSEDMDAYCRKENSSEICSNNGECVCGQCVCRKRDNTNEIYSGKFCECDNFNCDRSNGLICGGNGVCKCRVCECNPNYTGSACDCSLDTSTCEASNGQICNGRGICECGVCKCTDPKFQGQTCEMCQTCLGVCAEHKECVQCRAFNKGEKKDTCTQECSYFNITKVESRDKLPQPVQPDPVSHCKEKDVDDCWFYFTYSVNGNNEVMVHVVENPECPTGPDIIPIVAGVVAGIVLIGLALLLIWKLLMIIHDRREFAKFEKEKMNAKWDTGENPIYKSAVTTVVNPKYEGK

Arg168: SVVYGLR synthetic peptide in which Arg168 is mutated to alanine (SVVYGLA; SVVYGLR peptide; UniProt P10451 162-168, looked up, variant R168A)
Relative potency compared to parent peptide SVVYGLR against α4β1 (J6 adhesion to GST-CS-1) (α4β1 [1]): more potent
Selectivity between α4β1 and α4β7 on mutating the residue (α4β1 [2]): introduces a degree of selectivity
Relative potency compared to parent peptide SVVYGLR against α4β7 (RPMI8866 adhesion to zz-MAdCAM) (α4β7): less potent

FPTDLPA (listed as Homo sapiens) [synthetic peptide of OPN aa136-142]
Inhibition of J6 cell binding to CS-1 over the scrambled control at lower matrix concentrations (α4β1 [1]; lower matrix concentrations, data not shown): weak inhibition
Inhibition of J6 cell adhesion to GST-CS-1 by synthetic peptide (α4β1-CS-1 interaction) (α4β1 [1]): unable to inhibit binding to CS-1

GRVLYSV (Synthesized and/or Homo sapiens) [scrambled control peptide of SVVYGLR, reference compound]
Inhibition of RPMI8866 cell adhesion to zz-MAdCAM by synthetic peptide (α4β7): no effect

Gly166: SVVYGLR synthetic peptide in which Gly166 is mutated to alanine (SVVYALR; SVVYGLR peptide; UniProt P10451 162-168, looked up, variant G166A)
Selectivity between α4β1 and α4β7 on mutating the residue (α4β1 [2]): introduces a degree of selectivity

Leu167: SVVYGLR synthetic peptide in which Leu167 is mutated to alanine (SVVYGAR; SVVYGLR peptide; UniProt P10451 162-168, looked up, variant L167A)
Relative potency compared to parent peptide SVVYGLR against α4β1 (J6 adhesion to GST-CS-1) (α4β1 [1]): relative potency similar to that observed with the blocked peptide
Relative potency compared to parent peptide SVVYGLR against α4β7 (RPMI8866 adhesion to zz-MAdCAM) (α4β7): relative potency similar to that observed with the blocked peptide

SVVYGLR (VARIANT 2 The carboxy terminal end can be, for example COO-, COOH, or CONH2, see specification, for example Figures 10, 11, and 13; listed as Homo sapiens) [synthetic peptide of OPN aa162-168]
Potency at blocking J6 adhesion to CS-1 compared with the CS-1 peptide itself (α4β1 [1]): only slightly less potent
Inhibition of J6 cell adhesion to GST-CS-1 by synthetic peptide (α4β1-CS-1 interaction) (α4β1 [1]): blocked adhesion to CS-1
Inhibition of RPMI8866 cell adhesion to zz-MAdCAM by synthetic peptide (α4β7): inhibited adhesion

SVVYGLR-CONH2 (SVVYGLR-NH2; listed as Homo sapiens) [SVVYGLR (SEQ ID NO: 4)-CONH2, capped peptide lacking the acidic carboxy terminus]
Inhibition of J6 cell adhesion to GST-CS-1 by synthetic peptide (α4β1-CS-1 interaction) (α4β1 [1]): abrogated the ability
Inhibition of RPMI8866 cell adhesion to zz-MAdCAM by synthetic peptide (α4β7): abrogated the ability

Tyr165: SVVYGLR synthetic peptide in which Tyr165 is mutated to alanine (SVVAGLR; SVVYGLR peptide; UniProt P10451 162-168, looked up, variant Y165A)
Relative potency compared to parent peptide SVVYGLR against α4β1 (J6 adhesion to GST-CS-1) (α4β1 [1]): reduced the potency
Relative potency compared to parent peptide SVVYGLR against α4β7 (RPMI8866 adhesion to zz-MAdCAM) (α4β7): reduced the potency

Val163: SVVYGLR synthetic peptide in which Val163 is mutated to alanine (SAVYGLR; SVVYGLR peptide; UniProt P10451 162-168, looked up, variant V163A)
Relative potency compared to parent peptide SVVYGLR against α4β1 (J6 adhesion to GST-CS-1) (α4β1 [1]): reduced the potency
Relative potency compared to parent peptide SVVYGLR against α4β7 (RPMI8866 adhesion to zz-MAdCAM) (α4β7): reduced the potency

Val164: SVVYGLR synthetic peptide in which Val164 is mutated to alanine (SVAYGLR; SVVYGLR peptide; UniProt P10451 162-168, looked up, variant V164A)
Relative potency compared to parent peptide SVVYGLR against α4β1 (J6 adhesion to GST-CS-1) (α4β1 [1]): minor contribution to binding
Relative potency compared to parent peptide SVVYGLR against α4β7 (RPMI8866 adhesion to zz-MAdCAM) (α4β7): minor contribution to binding

aa17-168: GST fusion protein representing the thrombin cleaved fragment of OPN
Ability of coated GST-OPN fusion protein to support J6 cell adhesion (α4β1 [3]): adhered

aa17-168RAD: GST fusion of thrombin cleaved OPN fragment with RGD motif mutated to RAD
Ability of coated GST-OPN fusion protein to support J6 cell adhesion (α4β1 [3]): did not affect binding

aa17-314: GST fusion protein representing full length human OPN
Ability of coated GST-OPN fusion protein to support J6 cell adhesion (α4β1 [3]): adhered

aa115-168: GST fusion, N-terminal deletion of the thrombin cleaved OPN fragment
Ability of coated GST-OPN fusion protein to support J6 cell adhesion (α4β1 [3]): bound

aa125-168: GST fusion, N-terminal deletion of the thrombin cleaved OPN fragment
Ability of coated GST-OPN fusion protein to support J6 cell adhesion (α4β1 [3]): bound

aa132-146: GST fusion protein of OPN aa132-146 (LVTDFPTDLPATEVF; also: GST fusion protein; UniProt P10451 132-146, looked up, fragment)
Ability of coated GST-OPN fusion protein to support J6 cell adhesion (α4β1 [3]): supported J6 cell adhesion

aa153-168: GST fusion protein of OPN aa153-168, Gly of RGD mutated to Ala (VDTYDGRADSVVYGLR; also: GST fusion protein)
Ability of coated GST-OPN fusion protein to support J6 cell adhesion (α4β1 [3]): supported J6 cell adhesion
